Assay results reported in patent US4732973A, “Active site modified protease α-1-antitrypsin inhibitors” (Chiron Corporation, priority 1984, dated 1988).
Several values for one entry are separate records, joined by “and”; a condition that tells them apart may be missing. Equal entries are not always repeated.

How the values were obtained:
[1] = test system: human leukocyte elastase (HLE); assay: Oxidation resistance: N-chlorosuccinimide (NCS) treatment, then anti-HLE activity assay; type: biochemical
Procedure: To determine the anti-elastase activities of the mutant (Val) or wild-type (Met) α1 -antitrypsin, appropriate yeast extracts were incubated with human leukocyte elastase (HLE) and a synthetic peptide substrate the cleavage of which can be assayed at 410 nm (Beatty et al., supra). For the assay, extracts were diluted in 50 mM Tris pH8, 50 mM NaCl. […] Assays were initiated by the addition of 0.1 5 μg HLE and were incubated for 15 min at 28° C., terminated by the addition of 100 μl of 8N acetic acid and the absorbance at 410 nm determined (Beatty et al., supra).
For this purpose, aliquots of the extracts were diluted in 50 mM Tris pH8, 50 mM NaCl, incubated at room temperature for 5 min in 100 μl of 50 mM Tris pH8, with the indicated amount of NCS, and assayed for anti-HLE activity.

[2] = test system: human leukocyte elastase (HLE); assay: Anti-elastase activity: inhibition of human leukocyte elastase cleavage of MeO-Suc-Ala-Ala-Pro-Val-p-nitroanilide (A410); type: biochemical
Procedure: For the assay, extracts were diluted in 50 mM Tris pH8, 50 mM NaCl. […] Assays were initiated by the addition of 0.1 5 μg HLE and were incubated for 15 min at 28° C., terminated by the addition of 100 μl of 8N acetic acid and the absorbance at 410 nm determined (Beatty et al., supra). Protein concentrations were determined as described in Bradford, Anal. Biochem. (1976) 72:248-253. From the amount of human leukocyte elastase activity observed, given the protein concentration of the yeast extracts and the amount of the enzyme added, the percentage of the yeast soluble protein which is α1 -antitrypsin can be calculated. It is assumed that there is 100 percent human leukocyte elastase activity, a 1:1 complex between human leukocyte elastase and α1 -antitrypsin whose molecular weights are 29 kD and 42 kD, respectively.

In the case of “α1 AT: Control human α1-antitrypsin added in μg amounts to the elastase assay”, the “Elastase Activity (%)” value ([1]; Table 1, 1.0 μg control human α1 AT plus 3.8 μl Cl/l yeast extract, NCS (10 mM) 10 μl) is reported as 84%, the “Elastase Activity (%)” value ([1]; Table 1, 1.0 μg control human α1 AT, NCS (10 mM) 10 μl) is reported as 91% and the “Elastase Activity (%)” value ([1]; Table 2, 0.5 μg control human α1 AT, NCS (10 mM) +) is reported as 96%. The “Elastase Activity (%)” value ([2]; Table 1, 0.2 μg control human α1 AT, no NCS) was 67%, the “Elastase Activity (%)” value ([2]; Table 1, 1.0 μg control human α1 AT plus 3.8 μl Cl/l yeast extract, no NCS) was 12% and the “Elastase Activity (%)” value ([2]; Table 1, 1.0 μg control human α1 AT, no NCS) was 5% and 0%. For the same substance, the “Elastase Activity (%)” value ([2]; Table 2, 0.5 μg control human α1 AT, NCS -) was 44% and the “Elastase Activity (%)” value ([2]; Table 2, 1.0 μg control human α1 AT, NCS -) was 10%.
